Experimental data as given in patent US11919930B2, “Odorant receptor co-receptor” (Sumitomo Chemical Company, Limited, priority 2016, dated 2024).
Positions count from the first letter of the chain named. Entries after “also recorded” stand apart in the source; their conditions may differ.

System: odorant receptor AaOR8
Assay: Aequorin luminescence measurement in HEK293FT cells co-expressing AaOR8 and a co-receptor, 1-octen-3-ol added
Type: cell-based
Settings: 1-octen-3-ol 10^-4 to 10^-10 M; for intensity of response (relative amount of luminescence) to 1-octen-3-ol: compared to cells that expressed original AaORCO or DmORCO
Method: HEK293FT cells (purchased from invitrogen, Inc.) were inoculated into 10-cm Petri dishes at a concentration of 3×10^6 cells/Petri dish, and the cells were cultured in DMEM medium containing 10% FBS (manufactured by Nacalai Tesque, Inc.) for about 24 hours under the conditions of 37° C. and 5% CO2. 3 μg of any one of the co-receptor expression plasmids produced, 1.5 μg of any one of the odorant receptor expression plasmids produced, and 8 μg of Aequorin expression plasmid were mixed with 12.5 μL of Plus reagent and 31.25 μL of LIPOFECTAMINE LTX (manufactured by Invitrogen, Inc.), and the mixture was maintained for 30 minutes. Subsequently this liquid mixture was transfected into the above-mentioned cells. After 4 hours from the initiation of transfection, the cells were inoculated onto a 96-well plate at a concentration of 9×10^4 cells/well, and the cells were cultured in DMEM medium containing 10% FBS (manufactured by Nacalai Tesque, Inc.) for about 24 hours under the conditions of 37° C. and 5% CO2. Thereby, transformed cells having a co-receptor expression plasmid, an odorant receptor expression plasmid, and an aequorin expression plasmid transiently incorporated therein were obtained.
Aequorin is activated when hound to a calcium ion, and oxidizes a substrate such as coelenterazine, thus emitting light. […] Therefore, whether an odorant receptor complex functions an ion channel as a result of addition of a substance to be detected, can be measured from the change in the amount of luminescence.
A culture fluid of the transformed cells was removed, and the medium was exchanged with Hanks-HEPES (20 mM, pH 7.4) including Assay buffer (0.5 μM coelenterazine h (manufactured by Promega Corporation) and 0.3% BSA. culture system was left to stand for another 4 hours at room temperature. Subsequently, a substance to be detected, which corresponded to an odorant receptor, was added to the cell culture using FLEXSTATION 3 (manufactured by Molecular Devices, LLC), and at the same time, the amount of luminescence of the cells was measured. As a control substance, the amount of luminescence in the cells to which dimethyl sulfoxide had been added was designated as 1, and the amount or luminescence of cells to which the substance to be detected was added was calculated as a relative value.
(§1) Cells into which: • an expression plasmid of odorant receptor AaOR8; • an expression plasmid of any one of co-receptor AaORCO or DmORCO, or various chimeric co-receptors Dm-AaORCO having different positions of recombination [Dm(NT-EC1)AaORCO, Dm(NT-TM3)AaOROC, Dm(NT-TM4)AaORCO, Dm(NT-TM5)AaORCO, or Dm(NT-TM6)AaORCO]; and • an aequorin expression plasmid had been incorporated were used, and the amount of luminescence was measured as explained above. 1-Octen-3-ol was used as a substance to be detected, and 1-octen-3-ol was added to the culture fluid at a concentration of 10^−4 M, 10^−5 M, 10^−6 M, 10^−7 M, 10^−8 M, 10^−9 M, or 10^−10 M. The results are presented in FIG. 1.
as §1, with “AmORCO” for “AaORCO”, “Dm-AmORCO” for “Dm-AaORCO”, “[Dm(NT-TM3)AmOROC, Dm(NT-TM4)AmORCO, Dm(NT-TM5)AmORCO,” for “[Dm(NT-EC1)AaORCO, Dm(NT-TM3)AaOROC, Dm(NT-TM4)AaORCO, Dm(NT-TM5)AaORCO,”, “Dm(NT-TM6)AmORCO];” for “Dm(NT-TM6)AaORCO];”, “2. […]” for “1.”

[1] = compared to cells that expressed original AaORCO or AmORCO

B1: Dm(NT-TM4)AaORCO: chimeric co-receptor: NT to TM4 (residues 1-234) from Drosophila co-receptor, IC2 to C-terminal domain from Aedes co-receptor; SEQ ID NO:71 (protein)
chain: MTTSMQPSKYTGLVADLMPNIRAMKYSGLFMHNFTGGSAFMKKVYSSVHLVFLLMQFTFILVNMALNAEEVNELSGNTITTLFFTHCITKFIYLAVNQKNFYRTLNIWNQVNTHPLFAESDARYHSIALAKMRKLFFLVMLTTVASATAWTTITFFGDSVKMVVDHETNSSIPVEIPRLPIKSFYPWNASHGMFYMISFAFQIYYVLFSMIHSNLCDVMFCSWLIFACEQLQHLKGIMRPLMELSATLDTYRPNSAALFRVASAGSKSELILNEEKDPDTKDFDLNGIYNSKADWGAQFRAPSTLQTFGDNGINGNPNGLTKKQELMVRSAIKYWVERHKHVVRLVSAIGETYGAALLLHMLTSTIKLTLLAYQATKIDALNVYGLTVIGYLVYALAQVFLFCIFGNRLIEESSSVMEAAYSCHWYDGSEEAKTFVQIVCQQCQKAMTISGAKFFTVSLDLFASVLGAVVTYFMVLVQLK
  intensity of response (relative amount of luminescence) to 1-octen-3-ol: responded more strongly to 1-octen-3-ol; also recorded: the intensity of response to 1-octen-3-ol was higher

B2: Dm(792)AaORCO: chimeric co-receptor: N-terminus to residue 264 from Drosophila co-receptor, residue 265 to C-terminus from Aedes co-receptor; SEQ ID NO:74 (protein)
chain: B1 chain with R239K, T247S, V261S, A262L
Compared to cells that expressed original AaORCO
  intensity of response to 1-octen-3-ol: the intensity of response to 1-octen-3-ol was decreased

B3: Dm(NT-636)AaORCO: chimeric co-receptor: N-terminus to residue 212 from Drosophila co-receptor, residue 213 to C-terminus from Aedes co-receptor; SEQ ID NO:78 (protein)
chain: B1 chain with S213A, C216A, I225L, A227T
  intensity of response (relative amount of luminescence) to 1-octen-3-ol: the intensity of response to 1-octen-3-ol was decreased

B4: Aa(TM1-4Dm)AaORCO: chimeric co-receptor: first to fourth transmembrane domains from Drosophila co-receptor, other domains from Aedes co-receptor; SEQ ID NO:82 (protein)
chain: MNVQPTKYHGLVLDLMPNIRLMQGFGHFLFRYVNGPVLIKKVYSSVHLVFLLMQFTFILVNMAMNTGDVNELTANTITTLFFTHCITKFIYLAVNSEHFYRTLGIWNQPNSHSLFAESDARYHSIALAKMRKLFFLVMLTTVASATAWTTITFFGDSVKNVFDKETNETYTVEIPRLPIKAWYPWDAMHGMFYMISFAFQIYYVLFSMIHSNLCDVMFCSWLIFACEQLQHLKGIMRPLMELSATLDTYRPNSAALFRVASAGSKSELILNEEKDPDTKDFDLNGIYNSKADWGAQFRAPSTLQTFGDNGINGNPNGLTKKQELMVRSAIKYWVERHKHVVRLVSAIGETYGAALLLHMLTSTIKLTLLAYQATKIDALNVYGLTVIGYLVYALAQVFLFCIFGNRLIEESSSVMEAAYSCHWYDGSEEAKTFVQIVCQQCQKAMTISGAKFFTVSLDLFASVLGAVVTYFMVLVQLK
  intensity of response (relative amount of luminescence) to 1-octen-3-ol: the intensity of response to 1-octen-3-ol was decreased

B5: Dm(TM1-4Aa)AaORCO: chimeric co-receptor: amino-terminal domain, EC1, IC1, EC2 from Drosophila co-receptor, other domains from Aedes co-receptor; SEQ ID NO:86 (protein)
chain: MTTSMQPSKYTGLVADLMPNIRAMKYSGLFMHNFTGGSAFMRKLYSWWNLIMILLQYFAIMGNLVLNAEEVNELSGNTITTLFFTHSVTKFIYVAVNQKNFYRTLNIWNQVNTHPLFAESDARYHSIALAKMRKLLVMVMVTTVLSVVAWITITFFGDSVKMVVDHETNSSIPVEIPRLPIKSFYPWNASSGVPYFFSFIYQAYFLLFSMCQANLADVMFCSWLLFTCEQLQHLKGIMRPLMELSATLDTYRPNSAALFRVASAGSKSELILNEEKDPDTKDFDLNGIYNSKADWGAQFRAPSTLQTFGDNGINGNPNGLTKKQELMVRSAIKYWVERHKHVVRLVSAIGETYGAALLLHMLTSTIKLTLLAYQATKIDALNVYGLTVIGYLVYALAQVFLFCIFGNRLIEESSSVMEAAYSCHWYDGSEEAKTFVQIVCQQCQKAMTISGAKFFTVSLDLFASVLGAVVTYFMVLVQLK
  intensity of response (relative amount of luminescence) to 1-octen-3-ol: the intensity of response to 1-octen-3-ol was decreased

B6: Aa(NT-TM4)AmORCO: chimeric co-receptor: NT to TM4 from Aedes co-receptor, IC2 to C-terminal domain from Apis co-receptor; SEQ ID NO:108 (protein)
chain: MNVQPTKYHGLVLDLMPNIRLMQGFGHFLFRYVNGPVLIRKLYSWWNLIMILLQYFAIMGNLVMNTGDVNELTANTITTLFFTHSVTKFIYVAVNSEHFYRTLGIWNQPNSHSLFAESDARYHSIALAKMRKLLVMVMVTTVLSVVAWITITFFGDSVKNVFDKETNETYTVEIPRLPIKAWYPWDAMSGVPYFFSFIYQAYFLLFSMCQANLADVMFCSWLLFTCEQLQHLKNIMKPLMEFSATLDTVVPNSGELFKAGSAEQPKEQEPLPPVTPPQGENMLDMDLRGIYSNRTDFTTTFRPTAGMTFNGGVGPNGLTKKQEMLVRSAIKYWVERHKHIVRLVTAIGDAYGVALLLHMLTTTITLTLLAYQATKIHAVDTYAASVVGYLLYSLGQVFMLCIFGNRLIEESSSVMEAAYSCHWYDGSEEAKTFVQIVCQQCQKAMSISGAKFFTVSLDLFASVLGAMVTYFMVLVQLK
[1]
  response (relative amount of luminescence) to 1-octan-3-ol: responded more strongly to 1-octan-3-ol

B7: Ag(NT-TM4)AmORCO: chimeric co-receptor: NT to TM4 from Anopheles co-receptor, IC2 to C-terminal domain from Apis co-receptor; SEQ ID NO:114 (protein)
chain: MQVQPTKYVGLVADLMPNIRLMQASGHFLFRYVTGPILIRKVYSWWTLAMVLIQFFAILGNLATNADDVNELTANTITTLFFTHSVTKFIYFAVNSENFYRTLAIWNQTNTHPLFAESDARYHSIALAKMRKLLVLVMATTVLSVVAWVTITFFGESVKTVLDKATNETYTVDIPRLPIKSWYPWNAMSGPAYIFSFIYQIYFLLFSMVQSNLADVMFCSWLLLACEQLQHLKNIMKPLMEFSATLDTVVPNSGELFKAGSAEQPKEQEPLPPVTPPQGENMLDMDLRGIYSNRTDFTTTFRPTAGMTFNGGVGPNGLTKKQEMLVRSAIKYWVERHKHIVRLVTAIGDAYGVALLLHMLTTTITLTLLAYQATKIHAVDTYAASVVGYLLYSLGQVFMLCIFGNRLIEESSSVMEAAYSCHWYDGSEEAKTFVQIVCQQCQKAMSISGAKFFTVSLDLFASVLGAMVTYFMVLVQLK
[1]
  concentration of 1-octan-3-ol at which cells responded: responded to 1-octan-3-ol at a lower concentration
